Key:
Type in all cases: cell-based
L363 cells = experiment: JNG assay, co-culture with L363 cells; conditions: co-culture with L363
Outline: (§1)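 Read-out is NFAT-driven GFP measured by flow cytometry after ~4–18 h co-culture of SAR-expressing JNG cells with target cells (E:T about 1:2). SARs were introduced by lentiviral spinfection and selected with puromycin or blasticidin when possible; scores (+/- to 5+ ≈ 5–50% GFP+) are relative to parental JNG cells.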

Nalm6 cells = experiment: JNG assay, co-culture with Nalm6 cells; conditions: co-culture with Nalm6
Outline: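 Values are semi-quantitative grades of GFP induction, each step approximating 10% more GFP+ cells (5+ ≈50%) above parental reporter cells, measured by FACS after SAR-transduced JNG cells were cultured with targets at ~1:2 E:T for ~4–18 h.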

U266 cells = experiment: JNG NFAT-GFP induction on co-culture with U266
RAJI cells = experiment: JNG assay, co-culture with RAJI cells; conditions: JNG cells expressing construct, co-culture with Raji
Outline: as §1

RAJI-CD19-KO cells = experiment: JNG assay, co-culture with RAJI-CD19-KO cells; conditions: co-culture with Raji-CD19-KO
Outline: as §1

B1: 22246 (protein)
chain: MALPVTALLLPLALLLHAARPACEVQLLESGGGLIQPGGSLRLSCAASGFTFSSHAMTWVRQAPGKGLEWVSAISGSGDYTHYADSVKGRFTISRDNSKNTVYLQMNSLRAEDSAVYYCAKDEDGGSLLGHRGQGTLVTVSSGTGPQGIFGQPGYINEFDIQMTQSPSSLSASVGDRVTITCKASDHINNWLAWYQQKPGQAPKLLIYGATTLETGVPSRFSGSGSGTDYTLTISSLQPEDFATYYCQQSWNTPWTFGQGTKLEIKRLEDLKNVFPPEVAVFEPSKAEIAHTQKATLVCLATGFYPDHVELSWWVNGKEVHSGVCTDPQPLKEQPALNDSRYCLSSRLRVSATFWQNPRNHFRCQVQFYGLSENDEWTQDRAKPVTQIVSAEAWGRADCGITSASYHQGVLSATILYEILLGKATLYAVLVSALVLMAMVKRKDSRGRAKRSGSGATNFSLLKQAGDVEENPGPTSATMDWIWRILFLVGAATGAHSGPEVQLVESGGGLVQAGGSLRLSCAASGRTFSMGWFRQAPGKEREFVAAITYSGGSPYYADSVKGRFTISRDNAKNTVYLQMNSLKPEDTAVYYCAANPTYGSDWNAENWGQGTQVTVSSGSGGGGSGGGGSGGGGSFEQVQLQQPGAELVKPGASVKMSCKASGYAFSSYWINWMKQKPGQGLEWIGQIYPGDGDTNYNGKFKGRATLTADTSSSTAYMQLSSLTSEDSAVYFCARSITTVVGCAMDYWGQGTSVTVSSTRIQNPDPAVYQLRDSKSSDKSVCLFTDFDSQTNVSQSKDSDVYITDKCVLDMRSMDFKSNSAVAWSNKSDFACANAFNNSIIPEDTFFPSPESSCDVKLVEKSFETDTNLNFQNLSVIGFRILLLKVAGFNLLMTLRLWSSRAKRSGSGVKQTLNFDLLKLAGDVESNPGPSRGHMTEYKPTVRLATRDDVPRAVRTLAAAFADYPATRHTVDPDRHIERVTELQELFLTRVGLDIGKVWVADDGAAVAVWTTPESVEAGAVFAEIGPRMAELSGSRLAAQQQMEGLLAPHRPKEPAWFLATVGVSPDHQGKGLGSAVVLPGVEAAERAGVPAFLETSAPRNLPFYERLGFTVTADVEVPEGPRTWCMTRKPGA
In the case of B1, the “NFAT-GFP ASSAY: L363” value (L363 cells) is reported as “+ (refer to approximately 5%, 10%, 20%, 30%, 40% and 50% GFP positive cells)”, the “NFAT-GFP ASSAY: Nalm6” value (Nalm6 cells) is reported as “+ (refer to approximately 5%, 10%, 20%, 30%, 40% and 50% GFP positive cells)” and the “NFAT-GFP ASSAY: U266” value (U266 cells) is reported as 2+ (refer to approximately 5%, 10%, 20%, 30%, 40% and 50% GFP positive cells).

B2: 22224 (protein)
chain: MALPVTALLLPLALLLHAARPDIQMTQSPSSLSASVGDRVTITCKASDHINNWLAWYQQKPGQAPKLLIYGATTLETGVPSRFSGSGSGTDYTLTISSLQPEDFATYYCQQSWNTPWTFGQGTKLEIKRLEDLKNVFPPEVAVFEPSEAEISHTQKATLVCLATGFYPDHVELSWWVNGKEVHSGVCTDPQPLKEQPALNDSRYCLSSRLRVSATFWQNPRNHFRCQVQFYGLSENDEWTQDRAKPVTQIVSAEAWGRADCGFTSESYQQGVLSATILYEILLGKATLYAVLVSALVLMAMVKRKDSRGRAKRSGSGATNFSLLKQAGDVEENPGPTSATMDWIWRILFLVGAATGAHSGPEVQLVESGGGLVQAGGSLRLSCAASGRTFTMGWFRQAPGKEREFVAAISLSPTLAYYADSVKGRFTISRDNAKNTVVLQMNSLKPEDTALYYCAADRKSVMSIRPDYWGQGTQVTVSSGSALRRLLGLFGFEQVQLQQPGAELVKPGASVKMSCKASGYAFSSYWINWMKQKPGQGLEWIGQIYPGDGDTNYNGKFKGRATLTADTSSSTAYMQLSSLTSEDSAVYFCARSITTVVGCAMDYWGQGTSVTVSSTRIQNPDPAVYQLRDSKSSDKSVCLFTDFDSQTNVSQSKDSDVYITDKCVLDMRSMDFKSNSAVAWSNKSDFACANAFNNSIIPEDTFFPSPESSCDVKLVEKSFETDTNLNFQNLSVIGFRILLLKVAGFNLLMTLRLWSSRAKRSGSGVKQTLNFDLLKLAGDVESNPGPSRGHMTEYKPTVRLATRDDVPRAVRTLAAAFADYPATRHTVDPDRHIERVTELQELFLTRVGLDIGKVWVADDGAAVAVWTTPESVEAGAVFAEIGPRMAELSGSRLAAQQQMEGLLAPHRPKEPAWFLATVGVSPDHQGKGLGSAVVLPGVEAAERAGVPAFLETSAPRNLPFYERLGFTVTADVEVPEGPRTWCMTRKPGA
For B2, the “NFAT-GFP ASSAY: Raji” value (RAJI cells) was “+ (refer to approximately 5%, 10%, 20%, 30%, 40% and 50% GFP positive cells)”, the “NFAT-GFP ASSAY: Raji-CD19-KO” value (RAJI-CD19-KO cells) was 2+ (refer to approximately 5%, 10%, 20%, 30%, 40% and 50% GFP positive cells) and the “NFAT-GFP ASSAY: L363” value (L363 cells) was 2+ (refer to approximately 5%, 10%, 20%, 30%, 40% and 50% GFP positive cells). For the same molecule, the “NFAT-GFP ASSAY: U266” value (U266 cells) was 4+ (refer to approximately 5%, 10%, 20%, 30%, 40% and 50% GFP positive cells).

B3: 22160 (protein)
chain: MALPVTALLLPLALLLHAARPACEVQLLESGGGLIQPGGSLRLSCAASGFTFSSHAMTWVRQAPGKGLEWVSAISGSGDYTHYADSVKGRFTISRDNSKNTVYLQMNSLRAEDSAVYYCAKDEDGGSLLGHRGQGTLVTVSSGTGGGGSGGGGSGGGGSEFDIQMTQSPSSLSASVGDRVTITCKASQDVGIAVAWYQQKPGKVPKLLIYWASTRHTGVPDRFSGSGSGTDFTLTISSLQPEDVATYYCQQYSSYPYTFGQGTKVEIKRLEADVSPKPTIFLPSIAETKLQKAGTYLCLLEKFFPDVIKIHWQEKKSNTILGSQEGNTMKTNDTYMKFSWLTVPEKSLDKEHRCIVRHENNKNGVDQEIIFPPIKTDVITMDPKDNCSKDANDTLLLQLTNTSAYYMYLLLLLKSVVYFAIITCCLLRRTAFCCNGEKSRAKRSGSGATNFSLLKQAGDVEENPGPTSMDWIWRILFLVGAATGAHSGPQVQLQESGGGLAQAGGSLRLSCAASGRTFSMGWFRQAPGKEREFVAAITYSGGSPYYASSVRGRFTISRDNAKNTVYLQMNSLKPEDTAVYYCAANPTYGSDWNAENWGQGTQVTVSSGSGGGGSGGGGSGGGGSFEQVQLQQPGAELVKPGASVKMSCKASGYAFSSYWINWMKQKPGQGLEWIGQIYPGDGDTNYNGKFKGRATLTADTSSSTAYMQLSSLTSEDSAVYFCARSITTVVGCAMDYWGQGTSVTVSSTRPHTKPSVFVMKNGTNVACLVKEFYPKDIRINLVSSKKITEFDPAIVISPSGKYNAVKLGKYEDSNSVTCSVQHDNKTVHSTDFEVKTDSTDHVKPKETENTKQPSKSCHKPKAIVHTEKVNMMSLTVLGLRMLFAKTVAVNFLLTAKLFFLRAKRSGSGVKQTLNFDLLKLAGDVESNPGPSRGHMTEYKPTVRLATRDDVPRAVRTLAAAFADYPATRHTVDPDRHIERVTELQELFLTRVGLDIGKVWVADDGAAVAVWTTPESVEAGAVFAEIGPRMAELSGSRLAAQQQMEGLLAPHRPKEPAWFLATVGVSPDHQGKGLGSAVVLPGVEAAERAGVPAFLETSAPRNLPFYERLGFTVTADVEVPEGPRTWCMTRKPGA
With B3 the “NFAT-GFP ASSAY: Raji” value (RAJI cells) was 2+ (refer to approximately 5%, 10%, 20%, 30%, 40% and 50% GFP positive cells), the “NFAT-GFP ASSAY: L363” value (L363 cells) was “+ (refer to approximately 5%, 10%, 20%, 30%, 40% and 50% GFP positive cells)” and the “NFAT-GFP ASSAY: Nalm6” value (Nalm6 cells) was “+ (refer to approximately 5%, 10%, 20%, 30%, 40% and 50% GFP positive cells)”. The “NFAT-GFP ASSAY: U266” value (U266 cells) was 3+ (refer to approximately 5%, 10%, 20%, 30%, 40% and 50% GFP positive cells).

B4: 22150 (protein)
chain: MALPVTALLLPLALLLHAARPACEVQLLESGGGLIQPGGSLRLSCAASGFTFSSHAMTWVRQAPGKGLEWVSAISGSGDYTHYADSVKGRFTISRDNSKNTVYLQMNSLRAEDSAVYYCAKDEDGGSLLGHRGQGTLVTVSSGTGGGGSGGGGSGGGGSEFDVVMTQSPSSLSASVGDRVTITCMASEDIYIRLAWYQQKPGNAPKLLIYAATSLETGVPSRFSGSGSGTDFTLTISSLQPEDFATYYCQQYWSSPWTFGGGTKVEIKLEADVSPKPTIFLPSIAETKLQKAGTYLCLLEKFFPDVIKIHWQEKKSNTILGSQEGNTMKTNDTYMKFSWLTVPEKSLDKEHRCIVRHENNKNGVDQEIIFPPIKTDVITMDPKDNCSKDANDTLLLQLTNTSAYYMYLLLLLKSVVYFAIITCCLLRRTAFCCNGEKSRAKRSGSGATNFSLLKQAGDVEENPGPTSMDWIWRILFLVGAATGAHSGPQVQLQESGGGLAQAGGSLRLSCAASGRTFSMGWFRQAPGKEREFVAAITYSGGSPYYASSVRGRFTISRDNAKNTVYLQMNSLKPEDTAVYYCAANPTYGSDWNAENWGQGTQVTVSSGSGGGGSGGGGSGGGGSFEQVQLQESGPGLVKPSQTLSLTCTVSGYSITSDYTWNWIRQPPGNGLEWIGYITYSGSTSYNPSLKSRVLISVDTSKNQVSLKLSSVTAADTAVYYCARLGRRYTMDYWGQGTTVTVSSTRPHTKPSVFVMKNGTNVACLVKEFYPKDIRINLVSSKKITEFDPAIVISPSGKYNAVKLGKYEDSNSVTCSVQHDNKTVHSTDFEVKTDSTDHVKPKETENTKQPSKSCHKPKAIVHTEKVNMMSLTVLGLRMLFAKTVAVNFLLTAKLFFLRAKRSGSGVKQTLNFDLLKLAGDVESNPGPSRGHMTEYKPTVRLATRDDVPRAVRTLAAAFADYPATRHTVDPDRHIERVTELQELFLTRVGLDIGKVWVADDGAAVAVWTTPESVEAGAVFAEIGPRMAELSGSRLAAQQQMEGLLAPHRPKEPAWFLATVGVSPDHQGKGLGSAVVLPGVEAAERAGVPAFLETSAPRNLPFYERLGFTVTADVEVPEGPRTWCMTRKPGA
In the case of B4, the “NFAT-GFP ASSAY: Raji” value (RAJI cells) is reported as “+ (refer to approximately 5%, 10%, 20%, 30%, 40% and 50% GFP positive cells)”, the “NFAT-GFP ASSAY: L363” value (L363 cells) is reported as “+/- (refer to approximately 5%, 10%, 20%, 30%, 40% and 50% GFP positive cells)” and the “NFAT-GFP ASSAY: U266” value (U266 cells) is reported as “+ (refer to approximately 5%, 10%, 20%, 30%, 40% and 50% GFP positive cells)”.
